Experiment [1] concerns the target GST-tagged Arabidopsis thaliana Rpn10 vWA domain (Arabidopsis thaliana) (UniProt P55034). The experiment can be described thus: SPR. In general terms: SPR reads the build-up and loss of mass on a sensor chip optically.
In experiment [2] the target is T1, GST-tagged Arabidopsis thaliana Rpn10 vWA domain (Arabidopsis thaliana, UniProt P55034 2-193).
T1 sequence: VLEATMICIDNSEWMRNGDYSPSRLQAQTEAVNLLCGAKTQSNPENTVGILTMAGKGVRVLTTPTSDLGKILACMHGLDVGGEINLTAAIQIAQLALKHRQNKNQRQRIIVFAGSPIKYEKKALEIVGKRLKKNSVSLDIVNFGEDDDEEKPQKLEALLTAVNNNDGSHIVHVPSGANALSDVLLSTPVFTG
The experiment can be described thus: SPR.

Experiment [3] has as its target T2, AtRpn10 vWA domain, GST removed, as in the purified complexes (Arabidopsis thaliana, UniProt P55034 2-193).
T2 sequence: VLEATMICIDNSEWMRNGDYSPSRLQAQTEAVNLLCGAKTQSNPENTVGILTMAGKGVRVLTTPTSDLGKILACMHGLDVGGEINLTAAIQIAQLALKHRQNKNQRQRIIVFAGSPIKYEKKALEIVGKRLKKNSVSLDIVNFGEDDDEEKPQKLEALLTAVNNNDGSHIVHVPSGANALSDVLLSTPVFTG
Description: SEC-MALS.

Take “onion yellows phytoplasma SAP05 (natural protein)”: the Kd (in general, a measure of binding affinity in units of concentration) in experiment [1] turned out to be 398 nM. That is a sub-micromolar value.

B1: Aster Yellows witches'-broom phytoplasma SAP05 (33-135) (natural protein, UniProt Q2NK94 33-135, looked up)
chain: APNEEFVGDMRIVNVNLSNIDILKKHETFKKYFDFTLTGPRYNGNIAEFAMIWKIKNPPLNLLGVFFDDGTRDDEDDKYILEELKQIGNGAKNMYIFWQYEQK
In experiment [2], B1 showed a Kd of 400 nM.

B2: AYWB_SAP05 (33-135), tag removed, as in the purified complex (natural protein, UniProt Q2NK94 33-135, looked up)
chain: APNEEFVGDMRIVNVNLSNIDILKKHETFKKYFDFTLTGPRYNGNIAEFAMIWKIKNPPLNLLGVFFDDGTRDDEDDKYILEELKQIGNGAKNMYIFWQYEQK
As to B2, the stoichiometry N – broadly, a count of units in the complex or per binding partner – in experiment [3] turned out to be 1.

Source of the values: paper PMC10844826 (iScience, 2024).
